{"source": "patent US20250051735A1", "about": "(VANDERBILT UNIVERSITY, published 2025)", "proteins": {"B1": {"name": "PB74-539 transposase generated by proteolytic cleavage (TEV-cleaved TEVΔ74PB1-539) (enzyme)", "chain": "GSSLASNRILTLPQRTIRGKNKHCWSTSKSTRRSRVSALNIVRSQRGPTRMCRNIYDPLLCFKLFFTDEIISEIVKWTNAEISLKRRESMTGATFRDTNEDEIYAFFGILVMTAVRKDNHMSTDDLFDRSLSMVYVSVMSRDRFDFLIRCLRMDDKSIRPTLRENDVFTPVRKIWDLFIHQCIQNYTPGAHLTIDEQLLGFRGRCPFRMYIPNKPSKYGIKILMMCDSGTKYMINGMPYLGRGTQTNGVPLGEYYVKELSKPVHGSCRNITCDNWFTSIPLAKNLLQEPYKLTIVGTVRSNKREIPEVLKNSRSRPVGTSMFCFDGPLTLVSYKPKPAKMVYLLSSCDEDASINESTGKPQMVMYYNQTKGGVDTLDQMCSVMTCSRKTNRWPMALLYGMINIACINSFIIYSHNVSSKGEKVQSRKKFMRNLYMSLTSSFMRKRLEAPTLKRYLRDNISNILPNE"}}, "target": "the molecule itself", "assay": "sedimentation velocity analytical ultracentrifugation (self-association)", "description": "Sedimentation velocity data were collected at 50,000 rpm and 20° C. on a Beckman Coulter ProteomeLab XL-I analytical ultracentrifuge following standard protocols (Zhao, H., et al. Curr Protoc Protein Sci, 2013 Chapter 20, Unit20 12). 2-channel, 12 mm centerpiece cells were used, and sedimentation was monitored with the absorbance (280 nm) and Rayleigh interference (655 nm) detection systems. A continuous c(s) distribution of Lamm equation solutions, as implemented in SEDFIT (Schuck, P. Biophys J 2000 78:1606-1619), modeled the sedimentation data. […] (Cole, J. L., et al. Methods Cell Biol 2008 84:143-179) provided the solution densities ρ, solution viscosities η, and protein partial specific volumes required for the analysis.\nThe N-terminus is required for transposase dimerization prior to transposon end binding. Although an attempt was made to explore the role of the piggyBac transposase N-terminus using purified proteins, no soluble N-terminally truncated transposases was recovered under conditions successfully used for the WT transposase in EXPI293F cells (Chen, Q., et al. Nat Commun, 2020 11:3446). To circumvent this, a TEV protease cleavage site was introduced between resides 74 and 75 which allowed expression and purification of a full-length protein and then proteolytical removal of the first 74 amino acids."}
{"protein": "B1", "values": [{"measurement": "binding result", "value": "no binding"}]}
